This is an account of results in US20120165211A1, “Human Antibodies Cross-Reacting With A Bacterial And A Self Antigen From Atherosclerotic Plaques” (priority 2007, published 2012).

“Also recorded” adds a separate entry of the source.

Assay [1] concerns antigen present in Klebsiella pneumoniae. Nature of the assay: Western blot assay on pathogen lysates. Type of assay: binding. The conditions noted are these: Fab 10 μg/ml; 8 μg total protein lysate per well. Here is the method:
(§1) Bacterial cell lysates were carried out inoculating a colony or a scratch in 10 ml of SB and growing bacteria at 37° C. overnight. Cultures of Staphylococcus aureus, Proteus mirabilis, Klebsiella pneumoniae, Enterococcus cloacae, Streptococcus pyogenes, Neisseriae gonhorreae, Listeria monocytogenes were grown. Overnight cultures were harvested by centrifugation (4500 RPM for 10 min.) and then resuspended in 1 ml of RIPA buffer and protease inhibitor PMSF (1 mM final). After three cycles of freeze-and-thawing (37° C. and −80° C.) and one cycle of sonication (90 sec at max power) the lysate was cleared by centrifugation (15000 RPM at 4° C. for 20 min) Moreover one colony of Haemophilus influenzae was seeded on blood agar plates and then grown at 37° C. overnight. Haemophilus inluenzae colonies were collected and resuspended in 500 μl of RIPA/PMSF. All lysates were stored at −20° C. until usage.
(§2) Lysates from Listeria monocitogenes, Streptococcus pyogenes, Staphylococcus aureus, Enterococcus cloacae, Haemophilus influenzae, Proteus mirabilis, Escherichia coli, Klebsiella pneumoniae, were prepared as described in Example II. SDS-PAGE was performed according to standard techniques. Briefly, protein concentration of all lysates was determined by BCA kit (Pierce) according to manufacturer instruction. SDS-PAGE loading buffer was added to protein lysates before heating at 90° C. for 5 min. […]
A general note: Immunoblotting shows a protein as a band on a membrane.

Assay [2] has as its system antigen present in Proteus mirabilis. The assay can be described thus: Western blot assay on pathogen lysates. Type of assay: binding. Conditions: Fab 10 μg/ml; 8 μg total protein lysate per well. How it is done: as §1, §2

B1: Fab7816: human recombinant Fab from coronary plaque library ID11LIB; heavy chain SEQ ID NO:2, light chain SEQ ID NO:4 (antibody, listed as Homo sapiens, V domains shown)
VH: LESGPGQVKPSQTLSLTCTVSGGSIGSGSYSWNWIRQPAGRGLEWIGRISDSGNTNFNPSLKSRVTMSVDTSKNQFALKLTSVTAADTATYFCARGRGILTGLFDYWGQGSLVSVSSASTKGPSVFPLAPSSKSTSGGTAALGCLVKD
VL: SPDSLAVSPGGRATIKCASSQSVLDNSNHKNSLAWYQQKPGLPPKLLIYWASTRYSGVPDRFSGSGSGTDFTLTINNLQAADVAVYFCQQYYSTPWTFGQGTKVE
Consider B1, for which the “binding in Western blot on Klebsiella pneumoniae lysate” value in assay [1] was “binds specifically; also recorded: recognizes with high specificity and affinity”. Moreover, the “binding in Western blot on Proteus mirabilis lysate” value in assay [2] is “binds specifically; also recorded: recognizes with high specificity and affinity”.
